No end group written: not given here.

The assay deals with T1, PACAP-R3 (human, UniProt P41587 24-438).
T1 sequence (looked up): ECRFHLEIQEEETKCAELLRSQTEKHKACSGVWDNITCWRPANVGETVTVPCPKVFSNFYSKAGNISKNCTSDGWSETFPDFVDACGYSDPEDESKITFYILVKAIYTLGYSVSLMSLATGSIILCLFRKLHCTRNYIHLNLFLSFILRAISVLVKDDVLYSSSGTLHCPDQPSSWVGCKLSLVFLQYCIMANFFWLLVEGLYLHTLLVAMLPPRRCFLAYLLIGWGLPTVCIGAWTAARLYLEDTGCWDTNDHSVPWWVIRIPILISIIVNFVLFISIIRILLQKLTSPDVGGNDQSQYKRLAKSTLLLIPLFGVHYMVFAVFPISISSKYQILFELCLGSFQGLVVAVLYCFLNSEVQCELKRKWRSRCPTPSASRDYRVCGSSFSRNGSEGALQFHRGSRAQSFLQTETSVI
As to the kind of experiment: cell-based or functional assay.
Consider HSDGIFTDSYSRYRKQLAVKKYLAAVKK [R3P39], for which the “R3 Selectivity” value is 2 ratio.

Regarding HSDAVFTENYTRLRKQMAVKKYLNSLKK-NH2 [R3P7], the “R3 Selectivity” value is 0.5 ratio. The figure for HSDAVFTDNYTRLRKQMAAKKYLNSILK [R3P50] is 6 ratio. Regarding HSDAVFTDNYTRLRKQMAVKKYLNSIKKKR [R3P57], the “R3 Selectivity” value amounted to 190 ratio. Consider HSDAVFTDNYTRLRKQMAAKKYLNSIKNKR [R3P65], for which the “R3 Selectivity” value came out at 130 ratio. For HSDAVFTENYTKLRKQLAAKKYLNDLKKGGT [R3P3], the “R3 Selectivity” value was 130 ratio. Regarding HSDAVFTDNYTRLRKQMAVKKYLNDILN [R3P48], the “R3 Selectivity” value amounted to 8 ratio. Take HSDGIFTDSYSRYRKQLAAKKYLADVKK [R3P38]: the “R3 Selectivity” value worked out at 7 ratio. On to HSDAVFTDNYTRLRKQMAAKKYLNSIKKK [R3P54], for which the “R3 Selectivity” value is greater than 200 ratio. In the case of HSDGIFTESYSRYRKQMAVKKYLAALKKKRYKQRVKNK [R3P6], the “R3 Selectivity” value was found to be 3 ratio. For HSDAVFTDNYTRLRKQMAVKKYLNSIKK-NH2 [R3P8], the “R3 Selectivity” value was found to be 1.5 ratio. As for HSDAVFTDQYTRLRKQLAAKKYLNTIKNKRY [R3P72], the “R3 Selectivity” value was greater than 600 ratio.

On to HSDGIFTDSYSRYRKQMAVKKYLAAVKKYLAAVRHG-NH2 [R3P17], for which the “R3 Selectivity” value was found to be 2 ratio. Turning to HSDAVFTDNYTRLRKQMAAKKYLNSIKK [R3P51], the “R3 Selectivity” value was determined as 90 ratio.

As for HSDAVFTDNYTRLRKQMAAKKYLNSIKKKRY [R3P52], the “R3 Selectivity” value was greater than 250 ratio. The figure for HSDAVFTDNYTRLRKQMAAKKYLQSIKNKRY [R3P69] is 190 ratio.

As to HSDAVFTDNYTRLRKQMAVKKYLNSIKKKRY [R3P56], the “R3 Selectivity” value was 100 ratio. As for HSDAVFTDNYTRLRKQVAAKKYLQSIKNKRY [R3P66], the “R3 Selectivity” value came to 250 ratio. For HSDAVFTDNYTRLRKQMAAHKYLNSIKNKRY [R3P73] the value was 170 ratio; for HSDAVFTDNYTRLRKQMAAKKYLNSIKNKRY [R3P55], 280 ratio; for HSDAVFTDNYTRLRKQMAAKHYLNSIKNKRY [R3P74], 150 ratio.

Consider HSDAVFTDQYTRLRKQMAAKKYLNSIKNKRY [R3P71], for which the “R3 Selectivity” value was 660 ratio.

For the molecule HSDAVFTDNYTRLRKQMAAKKYLNTIKNKRY [R3P70], the “R3 Selectivity” value is greater than 250 ratio. Take HSDAVFTDNYTRLRKQLAAKKYLNTIKNKRY [R3P67]: the “R3 Selectivity” value was 330 ratio.

Consider HSDAVFTDNYTRLRKQMAVKKYLNSIKNKRY [R3P59], for which the “R3 Selectivity” value was found to be 70 ratio. HSDAVFTDNYTRLRKQMAAKKYLNSIKN [R3P49]: the “R3 Selectivity” value is 30 ratio. For HSDAVFTENYTKLRKQLAAKKYLNDLKK [R3P5], the “R3 Selectivity” value is 30 ratio. In the case of HSDGIFTDSYSRYRKQMAVKKYLAAVKQGGT-NH2 [R3P16], the “R3 Selectivity” value turned out to be 1.4 ratio. As for HSDAVFTDNYTRLRKQLAAKKYLNDILKGGT [R3P23], the “R3 Selectivity” value amounted to 23 ratio. The figure for HSDAVFTDNYTRLRKQLAAKKYLNDILNGGT [R3P27] is 8 ratio; for HSDAVFTDNYTRLRKQLAVKKYLNDILKGGT [R3P28] it is 1 ratio. For the molecule HSDAVFTDNYTRLRKQMAAKKYLNSIKKKR [R3P53], the “R3 Selectivity” value was 2500 ratio. As to Ac-HSDAVFTENYTKLRKQLAAKKYLNDLKKGGT (ends and bridges not checked) [R3P2], the “R3 Selectivity” value was greater than 300 ratio.

Regarding HSDGIFTDSYSRYRKQLAAKKYLADVKKGGT [R3P37], the “R3 Selectivity” value stood at 18 ratio. For HSDAVFTDNYTRLRKQLAVKKYLNSILN [R3P46], the “R3 Selectivity” value stood at 7 ratio.

Turning to HSDAVFTDNYTRLRKQMAVKKYLNSIKKK [R3P58], the “R3 Selectivity” value was found to be 170 ratio. For HSDAVFTDNYTRLRKQIAAKKYLQTIKK [R3P61] the value was 140 ratio; for HSDAVFTDNYTRLRKQVAAKKYLNSIKK [R3P62], 100 ratio.

Turning to HSDGIFTDSYSRYRKQMAVKKYLAAVKK [R3P40], the “R3 Selectivity” value stood at 2 ratio. In the case of HSDAVFTDNYTRLRKQVAAKKYLQSIKK [R3P60], the “R3 Selectivity” value was 120 ratio. As to HSDAVFTDNYTRLRKQMAAKKYLNSILN [R3P47], the “R3 Selectivity” value was 6 ratio.

These data come from patent EP1192182B1, “PITUITARY ADENYLATE CYCLASE ACTIVATING PEPTIDE (PACAP) RECEPTOR 3 (R3) AGONISTS AND THEIR PHARMACOLOGICAL METHODS OF USE” (priority 1999, dated 2001).
